Assay results taken from PMC6555819, “Comprehensive study of nuclear receptor DNA binding provides a revised framework for understanding receptor specificity”.
Substitutions are numbered along the chain they refer to.

B1: NRC3_wobSeed76_DR3_C13A_o1 (dsDNA)
DNA 1: GCCCTACTGGGCAAAAAAGGTCATTGATGCCGATAAGCGATTGACAGCGTAGAATGAAGG
DNA 2: CCTTCATTCTACGCTGTCAATCGCTTATCGGCATCAATGACCTTTTTTGCCCAGTAGGGC
B2: NRC3_wobSeed4_DR0_A14G_o1 (dsDNA)
DNA 1: GCCCTACTGGGCCGAGGTCATTGATCAGTCAAAGCAGCGATTGACAGCGTAGAATGAAGG
DNA 2: CCTTCATTCTACGCTGTCAATCGCTGCTTTGACTGATCAATGACCTCGGCCCAGTAGGGC
B3: NRC3_wobSeed4_DR0_T25C_o1 (dsDNA)
DNA 1: B2 DNA 1 with G14A, T25C
DNA 2: B2 DNA 2 with A36G, C47T
B4: NRC3_wobSeed92_DR3_A9G_o1 (dsDNA)
DNA 1: GCAGAATGGGGTTATTAAGATCAGGGAATTGCGGTCGCGATTGACAGCGTAGAATGAAGG
DNA 2: CCTTCATTCTACGCTGTCAATCGCGACCGCAATTCCCTGATCTTAATAACCCCATTCTGC
B5: NRC3_wobSeed18_DR0_o1 (dsDNA)
DNA 1: GCGATACAGGGTCAAGGCCAGAGTACGCGTATTGATGCGATTGACAGCGTAGAATGAAGG
DNA 2: CCTTCATTCTACGCTGTCAATCGCATCAATACGCGTACTCTGGCCTTGACCCTGTATCGC
B6: NRC3_wobSeed69_DR2_A21T_o1 (dsDNA)
DNA 1: GCAGTCAAAGTTCACTAGGTTACGTAAGATTCAGCTGCGATTGACAGCGTAGAATGAAGG
DNA 2: CCTTCATTCTACGCTGTCAATCGCAGCTGAATCTTACGTAACCTAGTGAACTTTGACTGC
B7: NRC3_wobSeed93_DR3_T17A_o1 (dsDNA)
DNA 1: GCAGTCAAAGTTCATCAAGGTAACGTAAGATATGCTGCGATTGACAGCGTAGAATGAAGG
DNA 2: CCTTCATTCTACGCTGTCAATCGCAGCATATCTTACGTTACCTTGATGAACTTTGACTGC
B8: NRC3_wobSeed74_DR3_G7C_o1 (dsDNA)
DNA 1: GCTCTACTTGGTCACGGAGGTCACACACGACGGGTAGCGATTGACAGCGTAGAATGAAGG
DNA 2: CCTTCATTCTACGCTGTCAATCGCTACCCGTCGTGTGTGACCTCCGTGACCAAGTAGAGC
B9: NRC3_wobSeed74_DR3_G10C_o1 (dsDNA)
DNA 1: B8 DNA 1 with C7G, G10C
DNA 2: B8 DNA 2 with C51G, G54C
B10: NRC3_wobSeed2_DR0_C4A_o1 (dsDNA)
DNA 1: GCCATAGTTGGTCAAGGTCACACACGCTATAGGTACGCGATTGACAGCGTAGAATGAAGG
DNA 2: CCTTCATTCTACGCTGTCAATCGCGTACCTATAGCGTGTGTGACCTTGACCAACTATGGC
B11: NRC3_wobSeed2_DR0_A22G_o1 (dsDNA)
DNA 1: B10 DNA 1 with A4C, A22G
DNA 2: B10 DNA 2 with T39C, T57G
B12: NRC3_wobSeed65_DR2_G27T_o1 (dsDNA)
DNA 1: GCATATGTAGGTTATCGGGTCATTCATTTTGCGCATGCGATTGACAGCGTAGAATGAAGG
DNA 2: CCTTCATTCTACGCTGTCAATCGCATGCGCAAAATGAATGACCCGATAACCTACATATGC
B13: NRC3_wobSeed130_DR5_C17G_o1 (dsDNA)
DNA 1: GCCTCGAAAGGTCGTGGTCAGGTGAGTATACCAAACGCGATTGACAGCGTAGAATGAAGG
DNA 2: CCTTCATTCTACGCTGTCAATCGCGTTTGGTATACTCACCTGACCACGACCTTTCGAGGC
B14: NRC3_wobSeed58_DR2_C5G_o1 (dsDNA)
DNA 1: GCATGGAAAGGTCGTGAGGTGAGTATACAGAAAGGCGCGATTGACAGCGTAGAATGAAGG
DNA 2: CCTTCATTCTACGCTGTCAATCGCGCCTTTCTGTATACTCACCTCACGACCTTTCCATGC
B15: NRC3_wobSeed58_DR2_A25T_o1 (dsDNA)
DNA 1: B14 DNA 1 with G5C, A25T
DNA 2: B14 DNA 2 with T36A, C56G
B16: NRC3_wobSeed1_DR0_T12C_o1 (dsDNA)
DNA 1: GCCAAACTAGGCCAAGGTCAAAGTCGGTTTGTGCCAGCGATTGACAGCGTAGAATGAAGG
DNA 2: CCTTCATTCTACGCTGTCAATCGCTGGCACAAACCGACTTTGACCTTGGCCTAGTTTGGC
B17: NRC3_wobSeed125_DR5_G17T_o1 (dsDNA)
DNA 1: GCCCTTACGGGTCACTTACAGGTTATAGCATTTGGAGCGATTGACAGCGTAGAATGAAGG
DNA 2: CCTTCATTCTACGCTGTCAATCGCTCCAAATGCTATAACCTGTAAGTGACCCGTAAGGGC
B18: NRC3_wobSeed125_DR5_G22C_o1 (dsDNA)
DNA 1: B17 DNA 1 with T17G, G22C
DNA 2: B17 DNA 2 with C39G, A44C
B19: NRC3_wobSeed21_DR0_A15T_o1 (dsDNA)
DNA 1: GCCGTCAAAGTTCATGGTAACGTAACAGAAAGCAGCGCGATTGACAGCGTAGAATGAAGG
DNA 2: CCTTCATTCTACGCTGTCAATCGCGCTGCTTTCTGTTACGTTACCATGAACTTTGACGGC
B20: NRC3_wobSeed98_DR4_C29A_o1 (dsDNA)
DNA 1: GCACTAGTTGGTCAGCTGAGGTCACACAAAATTCGGGCGATTGACAGCGTAGAATGAAGG
DNA 2: CCTTCATTCTACGCTGTCAATCGCCCGAATTTTGTGTGACCTCAGCTGACCAACTAGTGC
B21: NRC3_wobSeed98_DR4_A19G_o1 (dsDNA)
DNA 1: B20 DNA 1 with A19G, A29C
DNA 2: B20 DNA 2 with T32G, T42C
B22: NRC3_wobSeed27_DR1_A9G_o1 (dsDNA)
DNA 1: GCACTCGGGGGACAAAGGTCAGAGCTACGCCAGTGAGCGATTGACAGCGTAGAATGAAGG
DNA 2: CCTTCATTCTACGCTGTCAATCGCTCACTGGCGTAGCTCTGACCTTTGTCCCCCGAGTGC
B23: NRC3_wobSeed27_DR1_C4G_o1 (dsDNA)
DNA 1: B22 DNA 1 with C4G, G9A
DNA 2: B22 DNA 2 with C52T, G57C
B24: NRC3_wobSeed50_DR2_A17G_o1 (dsDNA)
DNA 1: GCCCTAGTTGGTCAGGGGGTCACACACCGGATATGAGCGATTGACAGCGTAGAATGAAGG
DNA 2: CCTTCATTCTACGCTGTCAATCGCTCATATCCGGTGTGTGACCCCCTGACCAACTAGGGC
B25: NRC3_wobSeed50_DR2_T9G_o1 (dsDNA)
DNA 1: B24 DNA 1 with T9G, G17A
DNA 2: B24 DNA 2 with C44T, A52C
B26: NRC3_wobSeed50_DR2_C4T_o1 (dsDNA)
DNA 1: B24 DNA 1 with C4T, G17A
DNA 2: B24 DNA 2 with C44T, G57A
B27: NRC3_wobSeed50_DR2_T8A_o1 (dsDNA)
DNA 1: B24 DNA 1 with T8A, G17A
DNA 2: B24 DNA 2 with C44T, A53T
B28: NRC3_wobSeed124_DR5_C17A_o1 (dsDNA)
DNA 1: GCCCTACTGGGCCATTAAGAGGTCATTGATCATATGGCGATTGACAGCGTAGAATGAAGG
DNA 2: CCTTCATTCTACGCTGTCAATCGCCATATGATCAATGACCTCTTAATGGCCCAGTAGGGC
B29: NRC3_wobSeed124_DR5_T26C_o1 (dsDNA)
DNA 1: B28 DNA 1 with A17C, T26C
DNA 2: B28 DNA 2 with A35G, T44G
B30: NRC3_wobSeed124_DR5_T27C_o1 (dsDNA)
DNA 1: B28 DNA 1 with A17C, T27C
DNA 2: B28 DNA 2 with A34G, T44G
B31: NRC3_wobSeed124_DR5_T15C_o1 (dsDNA)
DNA 1: B28 DNA 1 with T15C, A17C
DNA 2: B28 DNA 2 with T44G, A46G
B32: NRC3_wobSeed116_DR4_G26T_o1 (dsDNA)
DNA 1: GCAGAATGAGGTTACCAAAGATCAGTGAAACGCTTGGCGATTGACAGCGTAGAATGAAGG
DNA 2: CCTTCATTCTACGCTGTCAATCGCCAAGCGTTTCACTGATCTTTGGTAACCTCATTCTGC
B33: NRC3_wobSeed116_DR4_A6G_o1 (dsDNA)
DNA 1: B32 DNA 1 with A6G, T26G
DNA 2: B32 DNA 2 with A35C, T55C

biological target: LXRb:RXRa (Homo sapiens, UniProt P55055;P19793 full;full); test: no ligand; PBM; 270 nM : 90 nM RXRa; PBS pH 7.4, 2% milk, 0.02% Triton X-100, 1 mM DTT, BSA, 0.4 mg/ml salmon testes DNA; conditions: tags: His kept;His cleaved; copies: 1;1; label: surface-attached array probe
Outline: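 For binding z-scores, the reference was random background probes on custom Agilent 4×180K protein-binding microarrays. These arrays were incubated 1 h with ligand-free nuclear receptor dimers in PBS pH 7.4, 2% milk, 0.02% Triton X-100, 1 mM DTT, 0.2 mg/mL BSA and 0.4 mg/ml salmon testes DNA. Fluorescence was scanned after antibody detection of each partner (one per run) and regression-normalized.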

LXRb:RXRa, sequence (P55055 whole entry, chain 1 of 2): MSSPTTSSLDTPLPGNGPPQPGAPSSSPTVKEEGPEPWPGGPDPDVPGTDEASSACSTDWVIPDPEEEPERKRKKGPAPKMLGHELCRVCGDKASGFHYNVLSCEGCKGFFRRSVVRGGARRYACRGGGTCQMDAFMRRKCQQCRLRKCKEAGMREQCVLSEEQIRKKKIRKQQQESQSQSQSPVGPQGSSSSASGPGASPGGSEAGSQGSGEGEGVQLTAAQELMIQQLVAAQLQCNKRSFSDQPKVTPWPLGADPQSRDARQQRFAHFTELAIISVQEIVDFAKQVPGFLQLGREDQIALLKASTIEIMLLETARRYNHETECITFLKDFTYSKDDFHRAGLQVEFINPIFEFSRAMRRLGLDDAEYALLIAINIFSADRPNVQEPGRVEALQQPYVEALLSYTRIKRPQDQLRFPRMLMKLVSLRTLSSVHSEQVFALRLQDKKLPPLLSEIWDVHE
LXRb:RXRa, sequence (P19793 whole entry, chain 2 of 2): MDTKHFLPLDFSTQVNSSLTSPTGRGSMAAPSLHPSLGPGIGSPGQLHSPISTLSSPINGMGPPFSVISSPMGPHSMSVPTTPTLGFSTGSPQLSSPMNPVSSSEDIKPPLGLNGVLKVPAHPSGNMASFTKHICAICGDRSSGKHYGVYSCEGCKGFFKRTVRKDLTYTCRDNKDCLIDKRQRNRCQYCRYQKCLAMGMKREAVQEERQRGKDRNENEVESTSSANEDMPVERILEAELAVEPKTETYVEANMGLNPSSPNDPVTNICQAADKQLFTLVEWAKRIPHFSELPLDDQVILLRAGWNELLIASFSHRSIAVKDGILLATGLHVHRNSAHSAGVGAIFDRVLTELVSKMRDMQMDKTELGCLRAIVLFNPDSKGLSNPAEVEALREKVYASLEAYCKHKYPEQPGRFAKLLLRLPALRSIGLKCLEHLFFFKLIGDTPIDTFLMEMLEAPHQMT

Point of comparison: B26, binding signal 3.43 PBM z-score against 500 random probes. Against it:
- B1 — higher, 3.73 PBM z-score against 500 random probes
- B2 — higher, 3.45 PBM z-score against 500 random probes
- B3 — lower, 3.2 PBM z-score against 500 random probes
- B4 — higher, 3.86 PBM z-score against 500 random probes
- B5 — higher, 3.7 PBM z-score against 500 random probes
- B6 — higher, 3.64 PBM z-score against 500 random probes
- B7 — higher, 3.53 PBM z-score against 500 random probes
- B8 — higher, 3.61 PBM z-score against 500 random probes
- B9 — higher, 3.52 PBM z-score against 500 random probes
- B10 — higher, 3.81 PBM z-score against 500 random probes
- B11 — higher, 3.68 PBM z-score against 500 random probes
- B12 — lower, 3.32 PBM z-score against 500 random probes
- B13 — lower, 3.33 PBM z-score against 500 random probes
- B14 — higher, 3.62 PBM z-score against 500 random probes
- B15 — higher, 3.5 PBM z-score against 500 random probes
- B16 — lower, 3.41 PBM z-score against 500 random probes
- B17 — higher, 3.58 PBM z-score against 500 random probes
- B18 — lower, 3.19 PBM z-score against 500 random probes
- B19 — higher, 3.49 PBM z-score against 500 random probes
- B20 — higher, 3.75 PBM z-score against 500 random probes
- B21 — higher, 3.54 PBM z-score against 500 random probes
- B22 — higher, 5.84 PBM z-score against 500 random probes
- B23 — higher, 3.47 PBM z-score against 500 random probes
- B24 — higher, 6.04 PBM z-score against 500 random probes
- B25 — higher, 3.76 PBM z-score against 500 random probes
- B27 — lower, 3.37 PBM z-score against 500 random probes
- B28 — higher, 3.9 PBM z-score against 500 random probes
- B29 — lower, 3.39 PBM z-score against 500 random probes
- B30 — higher, 3.78 PBM z-score against 500 random probes
- B31 — higher, 3.89 PBM z-score against 500 random probes
- B32 — lower, 3.35 PBM z-score against 500 random probes
- B33 — lower, 3.28 PBM z-score against 500 random probes
